In assay [1] the test system is mouse adult neural stem cells. As to the kind of experiment: Intracellular ATP assay, adult mouse NSC, non-adherent culture. As to conditions: varying concentrations, non-adherent conditions, 3 days, relative to control, dose-dependent. Format: cell-based. As for the experimental part:
The anterior lateral wall of the lateral ventricle of 5-6 week old mice was enzymatically dissociated in 0.8 mg/ml hyaluronidase and 0.5 mg/ml trypsin in DMEM containing 4.5 mg/ml glucose and 80 units/ml DNase at 37° C. for 20 min. The cells were gently triturated and mixed with three volumes of Neurosphere medium (DMEM/F12, B27 supplement, 12.5 mM HEPES pH7.4) containing 20 ng/ml EGF (unless otherwise stated), 100 units/ml penicillin and 100μg/ml streptomycin. After passing through a 70 μm strainer, the cells were pelleted at 160×g for 5 min. The supernatant was subsequently removed and the cells resuspended in Neurosphere medium supplemented as above, plated out in culture dishes and incubated at 37° C. Neurospheres were ready to be split approximately 7 days after plating.
To split neurosphere cultures, neurospheres were collected by centrifugation at 160×g for 5 min. […]
Mouse neurospheres, cultured as described above, from passage 2, were seeded in DMEM/F12 supplemented with B27 into a 96-well plate as single cells (10000 cells/well) to the substances to be measured were added at the concentrations indicated. After 3 days incubation, intracellular ATP was measured using the ATP-SL kit from BioThema, Sweden, according to the manufacturer's instructions. […]

A further assay has as its target T1, ADCYAP1R1 (Homo sapiens, UniProt P41586).
T1 sequence (P41586 21-468): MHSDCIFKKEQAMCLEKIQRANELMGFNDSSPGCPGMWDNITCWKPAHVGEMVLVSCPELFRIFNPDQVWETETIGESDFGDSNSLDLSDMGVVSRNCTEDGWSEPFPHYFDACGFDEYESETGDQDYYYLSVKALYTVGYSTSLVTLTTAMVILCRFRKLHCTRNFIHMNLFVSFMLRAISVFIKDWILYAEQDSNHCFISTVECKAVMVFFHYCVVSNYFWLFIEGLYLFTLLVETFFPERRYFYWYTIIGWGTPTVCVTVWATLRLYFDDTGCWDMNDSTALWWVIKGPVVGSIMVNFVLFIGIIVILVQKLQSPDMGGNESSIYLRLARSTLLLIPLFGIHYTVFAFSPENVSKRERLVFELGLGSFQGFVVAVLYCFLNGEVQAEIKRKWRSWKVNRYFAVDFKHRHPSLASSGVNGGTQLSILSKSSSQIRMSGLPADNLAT
The note with it: unlike PACAP, which binds ADCYAP1R1 and VIPR1 & 2; Moro and Lerner 1997; cited from earlier work.

These results are taken from US20040038888A1 (priority 2002, published 2004).

B1: Maxadilan: 63 amino acid peptide from salivary gland extracts of the sand fly; specific ADCYAP1R1 agonist (SEQ ID NO: 13) (peptide, listed as Mus musculus)
chain: CDATCQFRKAIEDCRKKAHHSDVLQTSVQTTATFTSMDTSQLPGSGVFKECMKEKAKEFKAGK
Regarding B1, the “intracellular ATP levels, and hence cell number” value in assay [1] is reported as “statistically significant increase in intracellular ATP levels”. In the assay with ADCYAP1R1, the binding specificity result was “binds specifically to only ADCYAP1R1”.
